Legend:
rat LIV-1 (rat) = biological target: T1, rat LIV-1 (rat) (UniProt Q4V887); test: FACS, HEK293/Rat_LIV-1 cells
T1 sequence (looked up): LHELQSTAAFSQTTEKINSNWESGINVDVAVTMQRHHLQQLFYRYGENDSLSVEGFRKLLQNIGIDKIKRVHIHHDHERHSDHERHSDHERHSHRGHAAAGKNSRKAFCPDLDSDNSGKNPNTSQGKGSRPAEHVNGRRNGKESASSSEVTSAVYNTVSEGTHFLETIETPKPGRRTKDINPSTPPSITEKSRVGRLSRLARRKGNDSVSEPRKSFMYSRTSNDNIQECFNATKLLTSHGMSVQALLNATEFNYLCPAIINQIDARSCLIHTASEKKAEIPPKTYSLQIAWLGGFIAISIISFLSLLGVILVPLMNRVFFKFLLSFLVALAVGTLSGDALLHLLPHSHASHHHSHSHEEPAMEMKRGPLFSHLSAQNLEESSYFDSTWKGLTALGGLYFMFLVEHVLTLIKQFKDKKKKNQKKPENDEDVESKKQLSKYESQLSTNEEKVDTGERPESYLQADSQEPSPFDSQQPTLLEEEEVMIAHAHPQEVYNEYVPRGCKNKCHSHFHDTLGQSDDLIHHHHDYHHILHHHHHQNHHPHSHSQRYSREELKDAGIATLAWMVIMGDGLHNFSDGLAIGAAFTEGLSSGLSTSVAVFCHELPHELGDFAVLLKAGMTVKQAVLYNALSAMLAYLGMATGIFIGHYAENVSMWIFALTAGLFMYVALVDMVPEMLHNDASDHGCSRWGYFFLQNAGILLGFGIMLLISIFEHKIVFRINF

mouse LIV-1 (mouse) = biological target: T2, mouse LIV-1 (mouse) (UniProt Q8C145); test: FACS, HEK293/Mouse_LIV-1 cells
T2 sequence (looked up): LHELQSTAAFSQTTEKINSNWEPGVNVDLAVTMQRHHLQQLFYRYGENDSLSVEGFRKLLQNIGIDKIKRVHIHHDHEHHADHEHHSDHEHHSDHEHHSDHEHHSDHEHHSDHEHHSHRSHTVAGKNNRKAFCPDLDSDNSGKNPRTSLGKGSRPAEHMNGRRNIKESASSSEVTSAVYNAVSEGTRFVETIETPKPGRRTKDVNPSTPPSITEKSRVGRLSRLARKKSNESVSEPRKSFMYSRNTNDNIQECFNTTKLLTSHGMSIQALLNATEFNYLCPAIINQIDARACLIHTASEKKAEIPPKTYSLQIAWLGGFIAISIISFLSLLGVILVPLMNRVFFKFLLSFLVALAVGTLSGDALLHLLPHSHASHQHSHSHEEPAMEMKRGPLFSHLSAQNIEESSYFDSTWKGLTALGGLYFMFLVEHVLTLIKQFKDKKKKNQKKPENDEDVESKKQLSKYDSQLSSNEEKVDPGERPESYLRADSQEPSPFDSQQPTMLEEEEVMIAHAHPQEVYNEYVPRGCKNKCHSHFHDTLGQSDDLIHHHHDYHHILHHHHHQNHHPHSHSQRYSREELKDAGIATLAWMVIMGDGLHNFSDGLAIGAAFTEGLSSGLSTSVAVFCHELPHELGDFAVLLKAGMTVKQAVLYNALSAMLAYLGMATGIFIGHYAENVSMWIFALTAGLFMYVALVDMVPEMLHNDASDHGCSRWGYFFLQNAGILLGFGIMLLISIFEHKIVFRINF

A Top (MFI) (rat LIV-1 (rat)) of 119 MFI and a Top (MFI) (mouse LIV-1 (mouse)) of 114 MFI were found for hIgG1 Isotype (antibody) in this work.
